These results are taken from the Immune Epitope Database (IEDB).

One test concerns the target HLA-B*58:01. As to the kind of experiment: IEDB peptide-MHC binding, purified MHC/direct/fluorescence; filed as Kd, often an IC50 or EC50 that approximates it; ≥ and ≤ were set here for values at or beyond the usual limits of such assays. Conditions: source organism: Orthohantavirus andesense.
The target of another test is HLA-C*03:03. The description is as above. Conditions: source organism: Orthohantavirus khabarovskense.
Another test concerns the target HLA-A*02:12. Described as above.
For the next test, the target named is HLA-C*12:03. The description is as above. To be noted: source organism: Orthohantavirus khabarovskense.
Another test addresses HLA-C*08:02. Described as above.
The target of another test is HLA-A*24:03. The test is described as above.
For the next test, the target named is HLA-A*02:03. Described as above.
Another test addresses HLA-A*68:02. The test is described as above.
In test [1] the target is HLA-A*01:01. Described as above. To be noted: source organism: Orthohantavirus andesense.
Another test has as its target HLA-A*23:01. The description is as above. Conditions: source organism: Choclo virus.
For another test, the target named is HLA-A*02:19. Described as above.
The target in another test is HLA-A*03:01. The test is described as above.
The next test addresses HLA-B*39:01. In words: IEDB peptide-MHC binding, purified MHC/competitive/fluorescence; filed as Kd, often an IC50 or EC50 that approximates it; ≥ and ≤ were set here for values at or beyond the usual limits of such assays.
The target in another test is HLA-B*46:01. The description is as above.
The target of a further test is HLA-B*18:01. The description is as above. To be noted: source organism: Orthohantavirus khabarovskense.
A further test addresses HLA-A*69:01. The description is as above.
The target of another test is HLA-B*27:03. The test is described as above.
In test [2] the target is HLA-A*26:01. The test is described as above. To be noted: source organism: Orthohantavirus khabarovskense.
The target in the next test is HLA-B*35:01. The description is as above. Conditions: source organism: Orthohantavirus khabarovskense.
The target of a further test is HLA-B*45:06. Described as above. To be noted: source organism: human gammaherpesvirus 4.
The next test deals with HLA-B*83:01. The description is as above. Conditions: source organism: human gammaherpesvirus 4.
The next test has as its target HLA-C*14:02. The description is as above. Conditions: source organism: human gammaherpesvirus 4.
The target in another test is HLA-B*15:42. The description is as above. Conditions: source organism: human gammaherpesvirus 4.
The target in the next test is HLA-A*68:23. The test is described as above. To be noted: source organism: human gammaherpesvirus 4.
The target in a further test is HLA-B*15:01. In words: IEDB peptide-MHC binding, purified MHC/competitive/fluorescence; ≥ and ≤ were set here for values at or beyond the usual limits of such assays. To be noted: source organism: Sudan ebolavirus.
The target in test [3] is HLA-A*02:01. The description is as above. To be noted: source organism: Sudan ebolavirus.
For test [4], the target named is HLA-A*01:01. Described as above. Conditions: source organism: Sudan ebolavirus.
The target of another test is HLA-A*02:11. As to the kind of experiment: IEDB peptide-MHC binding, purified MHC/direct/fluorescence; filed as Kd, often an IC50 or EC50 that approximates it; ≥ and ≤ were set here for values at or beyond the usual limits of such assays. To be noted: source organism: Sudan ebolavirus.
Test [5] has as its target HLA-A*26:01. The description is as above. To be noted: source organism: Sudan virus - Boniface, Sudan,1976.
A further test deals with HLA-A*02:16. The description is as above. Conditions: source organism: Sudan ebolavirus.
The target of test [6] is HLA-A*02:01. In words: IEDB peptide-MHC binding, purified MHC/competitive/fluorescence; filed as Kd, often an IC50 or EC50 that approximates it; ≥ and ≤ were set here for values at or beyond the usual limits of such assays. To be noted: source organism: Sudan ebolavirus.
The next test deals with HLA-B*57:01. The description is as above. Conditions: source organism: Sudan ebolavirus.
Another test has as its target HLA-B*51:01. The description is as above. To be noted: source organism: Sudan ebolavirus.
Where [7] appears, read: source organism: Orthohantavirus khabarovskense.
[8] abbreviates: source organism: Sudan ebolavirus.

With FSLPSSSSY, the Kd with HLA-B*58:01 was 0.0218 µM; in the test with HLA-C*03:03, 0.028 µM; with HLA-A*02:12 (source organism: Choclo virus), at least 20 µM; in the test with HLA-C*12:03, 0.043 µM; with HLA-C*08:02 (setting [7]), at least 20 µM; with HLA-A*24:03 (source organism: Choclo virus) it was at least 20 µM. The equilibrium dissociation constant (Kd) is at least 20 µM in the test with HLA-A*02:03 (source organism: Choclo virus); at least 20 µM with HLA-A*68:02 (source organism: Choclo virus); 0.377 µM in the test with HLA-A*01:01 [1]; at least 20 µM in the test with HLA-A*23:01; at least 20 µM with HLA-A*02:19 (source organism: Choclo virus); at least 20 µM with HLA-A*03:01 (source organism: Choclo virus). The Kd with HLA-B*39:01 (setting [7]) is at least 20 µM; with HLA-B*46:01 (setting [7]), 0.0707 µM; with HLA-B*18:01 it was at least 20 µM; with HLA-A*69:01 (setting [7]), at least 20 µM; with HLA-B*27:03 (setting [7]), at least 20 µM; with HLA-A*26:01 [2] it was at least 20 µM. In the test with HLA-B*35:01, this sequence gave a dissociation constant Kd of at most 0.0001 µM.
With YTGAMTSKF, the dissociation constant Kd with HLA-B*45:06 is at least 5 µM; with HLA-B*83:01, at least 5 µM; with HLA-C*14:02 it was 0.394 µM; with HLA-B*15:42, at least 5 µM; in the test with HLA-A*68:23, 0.0715 µM.
Consider YTENTSSYY, for which the IC50 with HLA-B*15:01 is 23.1 µM; in the test with HLA-A*02:01 [3] it was at least 213 µM; with HLA-A*01:01 [4] it was 0.927 µM. Moreover, the dissociation constant (Kd) in the test with HLA-A*02:12 (setting [8]), in the test with HLA-C*08:02 (setting [8]), with HLA-A*24:03 (setting [8]), with HLA-A*02:03 (setting [8]), with HLA-A*68:02 (setting [8]) and with HLA-A*02:11 was at least 20 µM throughout. Further, the equilibrium dissociation constant (Kd) with HLA-A*26:01 [5] was 0.007 µM; with HLA-A*02:16, at least 20 µM; in the test with HLA-A*02:19 (setting [8]) it was at least 20 µM; with HLA-A*03:01 (setting [8]) it was at least 20 µM; in the test with HLA-B*39:01 (setting [8]), at least 20 µM; with HLA-B*46:01 (setting [8]), at least 20 µM. The Kd with HLA-A*02:01 [6], in the test with HLA-A*69:01 (setting [8]), with HLA-B*57:01, with HLA-B*51:01 and with HLA-B*27:03 (setting [8]) was at least 20 µM throughout.

Broadly, the Kd is the equilibrium constant for the complex coming apart. What is called IC50 is the concentration needed to halve the response being measured.
